Measured values published in publication PMC9859758.
One block for each substance: values may come before it.

What was measured:
[1] = target: His-tagged Naumovozyma castellii Kar9 N-terminal domain (NcKar9N, residues 1-410), wild type (Naumovozyma castellii); experiment: SEC-MALS; 20 mM Tris-HCl pH 7.5, 150 mM NaCl, 1 mM dithiothreitol; S-200 10/300 column; 30 μl of 200 μM protein injected
[2] = target: His-tagged NcKar9N-β^− (Arg233Ala/Ile237Ala) (Naumovozyma castellii); experiment: as above
[3] = target: His-tagged NcKar9N-β^− (Arg233Ala/Ile237Ala) (Naumovozyma castellii); experiment: SEC-MALS; 20 mM Tris-HCl pH 7.5, 50 mM NaCl, 1 mM dithiothreitol; S-200 10/300 column; 30 μl of 200 μM protein injected
[4] = target: His-tagged NcKar9N-γ^− (Tyr363Ala/Arg364Ala) (Naumovozyma castellii); experiment: as above

stoichiometry N [1]: 2
Substance: His-tagged Naumovozyma castellii Kar9 N-terminal domain (NcKar9N, residues 1-410), wild type (domain or fragment)

stoichiometry N [2]: 2 | stoichiometry N [3]: 2
Substance: His-tagged NcKar9N-β^− (Arg233Ala/Ile237Ala) (domain or fragment)

stoichiometry N [4]: < 4
Substance: His-tagged NcKar9N-γ^− (Tyr363Ala/Arg364Ala) (domain or fragment)
